# Experimental data reported in publication PMC4699573 (Molecular bioSystems, 2016).
# Molecular target: T1, EcoR124I (Escherichia coli, UniProt P10484+P10485+P10486)
# T1 sequence (P10485 1-404): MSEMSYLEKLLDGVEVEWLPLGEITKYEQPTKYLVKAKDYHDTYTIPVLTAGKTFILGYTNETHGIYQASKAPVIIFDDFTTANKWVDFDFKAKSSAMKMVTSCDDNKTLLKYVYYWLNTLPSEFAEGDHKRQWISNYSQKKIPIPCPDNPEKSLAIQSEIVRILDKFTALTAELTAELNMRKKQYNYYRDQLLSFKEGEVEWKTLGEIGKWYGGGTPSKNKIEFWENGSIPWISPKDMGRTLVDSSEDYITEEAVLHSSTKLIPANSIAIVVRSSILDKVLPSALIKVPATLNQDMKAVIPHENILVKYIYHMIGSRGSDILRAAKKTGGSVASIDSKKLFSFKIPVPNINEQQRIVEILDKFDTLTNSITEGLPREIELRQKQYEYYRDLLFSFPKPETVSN
# T1 sequence (P10484 1-520): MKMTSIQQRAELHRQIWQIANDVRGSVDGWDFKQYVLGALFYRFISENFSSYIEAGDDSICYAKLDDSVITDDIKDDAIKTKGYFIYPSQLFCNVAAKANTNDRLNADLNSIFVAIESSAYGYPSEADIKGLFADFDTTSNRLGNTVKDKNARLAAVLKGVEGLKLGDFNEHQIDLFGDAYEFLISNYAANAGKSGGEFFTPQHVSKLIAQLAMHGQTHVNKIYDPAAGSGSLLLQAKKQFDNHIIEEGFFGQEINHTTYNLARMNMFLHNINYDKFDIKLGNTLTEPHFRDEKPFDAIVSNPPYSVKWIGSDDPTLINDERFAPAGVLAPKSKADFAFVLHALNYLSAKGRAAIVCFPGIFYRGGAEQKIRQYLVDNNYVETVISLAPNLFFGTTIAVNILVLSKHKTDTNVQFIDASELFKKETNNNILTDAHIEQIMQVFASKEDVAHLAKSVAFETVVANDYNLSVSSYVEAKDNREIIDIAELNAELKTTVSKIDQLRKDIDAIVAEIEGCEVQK
# T1 sequence (P10486 1-1038): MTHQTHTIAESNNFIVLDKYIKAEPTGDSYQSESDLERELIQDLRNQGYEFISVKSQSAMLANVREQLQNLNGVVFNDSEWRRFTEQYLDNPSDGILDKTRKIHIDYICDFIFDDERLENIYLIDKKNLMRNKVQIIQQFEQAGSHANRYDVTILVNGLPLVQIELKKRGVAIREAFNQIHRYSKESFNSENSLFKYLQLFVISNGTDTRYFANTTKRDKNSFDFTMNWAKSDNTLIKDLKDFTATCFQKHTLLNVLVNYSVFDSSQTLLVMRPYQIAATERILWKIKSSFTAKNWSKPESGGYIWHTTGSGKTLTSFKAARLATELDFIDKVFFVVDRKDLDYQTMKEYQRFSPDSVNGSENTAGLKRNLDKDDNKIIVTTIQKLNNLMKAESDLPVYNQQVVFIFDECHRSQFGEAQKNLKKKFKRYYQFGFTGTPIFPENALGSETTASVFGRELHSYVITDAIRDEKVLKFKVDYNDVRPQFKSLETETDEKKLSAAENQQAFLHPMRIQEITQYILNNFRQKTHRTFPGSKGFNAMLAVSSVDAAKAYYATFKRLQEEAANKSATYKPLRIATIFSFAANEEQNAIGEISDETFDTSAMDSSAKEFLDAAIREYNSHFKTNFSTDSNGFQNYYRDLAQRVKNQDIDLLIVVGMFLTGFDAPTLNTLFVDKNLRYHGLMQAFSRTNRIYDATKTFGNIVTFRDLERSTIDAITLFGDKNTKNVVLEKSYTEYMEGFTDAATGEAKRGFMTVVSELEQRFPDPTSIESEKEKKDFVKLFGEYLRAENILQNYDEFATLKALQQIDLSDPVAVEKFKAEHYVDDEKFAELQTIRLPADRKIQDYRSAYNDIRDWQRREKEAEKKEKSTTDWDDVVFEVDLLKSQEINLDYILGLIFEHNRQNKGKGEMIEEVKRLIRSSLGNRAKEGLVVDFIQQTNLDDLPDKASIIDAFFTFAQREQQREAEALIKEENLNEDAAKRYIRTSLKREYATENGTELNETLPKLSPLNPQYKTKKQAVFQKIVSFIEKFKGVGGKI
# Assay: Coupled spectrophotometric ATPase assay
# Assay type: biochemical
# Settings: EcoR124I pre-incubated with protein, reaction initiated by scDNA; Figure S1
substance,measurement,value
"Ocr: anti-restriction protein of bacteriophage T7 (overcome classical restriction), mimics B-DNA",Concentration at which ATP hydrolysis of EcoR124I is retarded / abolished,100 nM
